From paper PMC8467691, “Human Cystathionine γ-Lyase Is Inhibited by S-Nitrosation: A New Crosstalk Mechanism between NO and H2S” (Antioxidants, 2021)
Residue numbers refer to the chain shown, from its start. Names and notes keep the numbering of the source.

B1: wild-type human cystathionine γ-lyase (enzyme, UniProt P32929 1-405, looked up)
chain: MQEKDASSQGFLPHFQHFATQAIHVGQDPEQWTSRAVVPPISLSTTFKQGAPGQHSGFEYSRSGNPTRNCLEKAVAALDGAKYCLAFASGLAATVTITHLLKAGDQIICMDDVYGGTNRYFRQVASEFGLKISFVDCSKIKLLEAAITPETKLVWIETPTNPTQKVIDIEGCAHIVHKHGDIILVVDNTFMSPYFQRPLALGADISMYSATKYMNGHSDVVMGLVSVNCESLHNRLRFLQNSLGAVPSPIDCYLCNRGLKTLHVRMEKHFKNGMAVAQFLESNPWVEKVIYPGLPSHPQHELVKRQCTGCTGMVTFYIKGTLQHAEIFLKNLKLFTLAESLGGFESLAELPAIMTHASVLKNDRDVLGISDTLIRLSVGLEDEEDLLEDLDQALKAAHPPSGSHS
notes: human cystathionine γ-lyase (CSE), wild type; TEV and 3C protease recognition sites follow the His6 tag; No cleavage of the tag is told; also called CSE; WT CSE; source: recombinant, synthetic gene in pET-28b, purified (HisTrap FF Crude, Superdex 200 SEC)
B2: human cystathionine γ-lyase C310S variant (enzyme, UniProt P32929 1-405, looked up)
chain: B1 chain with C310S
notes: human cystathionine γ-lyase (CSE) with C310S; TEV and 3C protease recognition sites follow the His6 tag; also called C310S CSE; source: recombinant, pET-28b, site-directed mutagenesis of the WT vector, purified (HisTrap FF Crude, Superdex 200 SEC)
B3: human cystathionine γ-lyase C109S variant (enzyme, UniProt P32929 1-405, looked up)
chain: B1 chain with C109S
notes: human cystathionine γ-lyase (CSE) with C109S; TEV and 3C protease recognition sites follow the His6 tag; also called C109S CSE; source: recombinant, pET-28b, site-directed mutagenesis of the WT vector, purified (HisTrap FF Crude, Superdex 200 SEC)
B4: human cystathionine γ-lyase C172S variant (enzyme, UniProt P32929 1-405, looked up)
chain: B1 chain with C172S
notes: human cystathionine γ-lyase (CSE) with C172S; TEV and 3C protease recognition sites follow the His6 tag; also called C172S CSE; source: recombinant, pET-28b, site-directed mutagenesis of the WT vector, purified (HisTrap FF Crude, Superdex 200 SEC)
B5: human cystathionine γ-lyase C229S variant (enzyme, UniProt P32929 1-405, looked up)
chain: B1 chain with C229S
notes: human cystathionine γ-lyase (CSE) with C229S; TEV and 3C protease recognition sites follow the His6 tag; also called C229S CSE; source: recombinant, pET-28b, site-directed mutagenesis of the WT vector, purified (HisTrap FF Crude, Superdex 200 SEC)
B6: human cystathionine γ-lyase C70S variant (enzyme, UniProt P32929 1-405, looked up)
chain: B1 chain with C70S
notes: human cystathionine γ-lyase (CSE) with C70S; TEV and 3C protease recognition sites follow the His6 tag; also called C70S CSE; source: recombinant, pET-28b, site-directed mutagenesis of the WT vector, purified (HisTrap FF Crude, Superdex 200 SEC)
B7: human cystathionine γ-lyase C137S variant (enzyme, UniProt P32929 1-405, looked up)
chain: B1 chain with C137S
notes: human cystathionine γ-lyase (CSE) with C137S; TEV and 3C protease recognition sites follow the His6 tag; also called C137S CSE; source: recombinant, pET-28b, site-directed mutagenesis of the WT vector, purified (HisTrap FF Crude, Superdex 200 SEC)
B8: human cystathionine γ-lyase C84S variant (enzyme, UniProt P32929 1-405, looked up)
chain: B1 chain with C84S
notes: human cystathionine γ-lyase (CSE) with C84S; TEV and 3C protease recognition sites follow the His6 tag; also called C84S CSE; source: recombinant, pET-28b, site-directed mutagenesis of the WT vector, purified (HisTrap FF Crude, Superdex 200 SEC)
B9: human cystathionine γ-lyase C307S variant (enzyme, UniProt P32929 1-405, looked up)
chain: B1 chain with C307S
notes: human cystathionine γ-lyase (CSE) with C307S; TEV and 3C protease recognition sites follow the His6 tag; also called C307S CSE; source: recombinant, pET-28b, site-directed mutagenesis of the WT vector, purified (HisTrap FF Crude, Superdex 200 SEC)

Target: the molecule itself
Test: SEC; HiLoad 16/600 Superdex 200 in buffer B (20 mM Tris-HCl, pH 7.5, 150 mM NaCl, 10% glycerol, 100 μM TCEP, 20 μM PLP), after the HisTrap step of the purification

Protein	stoichiometry N
B1	4
B2	4
B3	4
B4	4
B5	4
B6	4
B7	4
B8	4
B9	4
